Substitutions are numbered along the chain they refer to. Read-outs that look alike come from different tables or passages of the source. Values belong to the binder of their own block, whether it stands above or below them.
Key:
[1] = biological target: T1, human plasma kallikrein (PK) (human, UniProt P03952 20-638); experiment: progress curve, pseudo-first order, fluorogenic substrate
human kallikrein 2 (hK2) [2] = biological target: T2, human kallikrein 2 (hK2) (human, UniProt P20151 25-261); experiment: as above
T2 construct: two preparations treated as one molecule; also called kallikrein hK2

[3] = biological target: urokinase plasminogen activator (uPA) (UniProt P00749 21-431, limits assumed); experiment: cell-based or functional assay
[4] = biological target: T3, prostate specific antigen (PSA, hK3) (human, UniProt P07288 25-261); experiment: cell-based or functional assay
[5] = biological target: T1, human plasma kallikrein (PK); experiment: cell-based or functional assay
human kallikrein hK1 = human kallikrein hK1 (human, UniProt P06870 25-262); experiment: cell-based or functional assay
human kallikrein 2 (hK2) [6] = biological target: T2, human kallikrein 2 (hK2); experiment: cell-based or functional assay
[7] = biological target: T1, human plasma kallikrein (PK); experiment: residual enzyme activity against [I]o/[E]o, fluorogenic substrate
human kallikrein 2 (hK2) [8] = biological target: T2, human kallikrein 2 (hK2); experiment: as above
[9] = biological target: T1, human plasma kallikrein (PK); experiment: progress curve, ka with PK against ka with hK2
Experimental: Under these conditions, a fixed amount of enzyme (2 nM) was mixed with different concentrations of inhibitor (0-800 nM) and an excess of substrate (10 μM). Each reaction was made in reaction buffer (50 mM Tris pH 7.5, 150 mM NaCl, 0,05% Triton X-100, 0.01% BSA) at 25° C. for 45 min and the rate of product formation was measured using a FLₓ800 fluorescence 96-well microplate reader (Biotek, USA). In this model, inhibition is considered to be irreversible over the course of reaction and the progress of enzyme activity is expressed by product formation (P), beginning at a rate (vz) and is inhibited over time (t) at a first-order rate (kobs), rate constant that is dependent only on inhibitor concentration.
The rate of inhibitory reaction with variant ACTs was determined for each protease showing reactivity with these inhibitors. To that end, interaction of hK2 and recombinant serpins was measured under pseudo-first order conditions using progress curve method. hK2 (2 nM) and substrate Z-FR-AMC […] were added to varying amounts (20 n-800 nM) of inhibitors rACT_{8.20}, rACT_{5.18} and inhibitors rACT_{6.2}, rACT_{8.3}, rACT_{6.7}, rACT_{6.1} (data not shown). […] After determination of kobs, association constants (ka) were calculated using Kₘ of the proteases for their corresponding substrates (table VI). […]

[10] = biological target: T4, human chymotrypsin (Chtr) (human, UniProt P17538 19-263); experiment: progress curve
[11] = biological target: T1, human plasma kallikrein (PK); experiment: progress curve
[12] = biological target: T5, human kallikrein 14 (hK14) (human, UniProt Q9P0G3 25-251, limits assumed); experiment: progress curve
T5 construct: range counted on GenBank AAK48524 (printed), which may differ from the UniProt numbering; also called recombinant hK14
T5 sequence (looked up): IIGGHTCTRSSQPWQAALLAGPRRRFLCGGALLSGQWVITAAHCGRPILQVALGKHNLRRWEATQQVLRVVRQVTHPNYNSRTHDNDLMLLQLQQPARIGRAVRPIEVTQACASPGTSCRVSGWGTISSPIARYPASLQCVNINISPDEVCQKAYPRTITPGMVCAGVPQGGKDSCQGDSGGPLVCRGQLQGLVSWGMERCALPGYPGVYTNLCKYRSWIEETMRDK

[13] = biological target: T4, human chymotrypsin (Chtr); experiment: residual enzyme activity against [I]o/[E]o
[14] = biological target: T1, human plasma kallikrein (PK); experiment: residual enzyme activity against [I]o/[E]o
human kallikrein 8 (hK8) [15] = biological target: T6, human kallikrein 8 (hK8) (human, UniProt O60259 33-260); experiment: residual enzyme activity against [I]o/[E]o
T6 sequence (looked up): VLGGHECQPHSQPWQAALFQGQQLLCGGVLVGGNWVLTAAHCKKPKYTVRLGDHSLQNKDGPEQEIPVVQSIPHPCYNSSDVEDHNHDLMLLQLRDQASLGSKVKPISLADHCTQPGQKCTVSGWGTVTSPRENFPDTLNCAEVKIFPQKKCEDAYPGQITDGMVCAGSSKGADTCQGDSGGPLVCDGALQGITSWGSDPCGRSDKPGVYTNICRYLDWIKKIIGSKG

[16] = biological target: T5, human kallikrein 14 (hK14); experiment: residual enzyme activity against [I]o/[E]o
thrombin = experiment: cell-based or functional assay
[17] = biological target: T4, human chymotrypsin (Chtr); experiment: cell-based or functional assay
[18] = biological target: T1, human plasma kallikrein (PK); experiment: cell-based or functional assay; remark: listed apart in the source
[19] = biological target: T7, human neutrophil elastase (HNE) (human, UniProt P08246 30-247, limits assumed); experiment: cell-based or functional assay
T7 sequence (looked up): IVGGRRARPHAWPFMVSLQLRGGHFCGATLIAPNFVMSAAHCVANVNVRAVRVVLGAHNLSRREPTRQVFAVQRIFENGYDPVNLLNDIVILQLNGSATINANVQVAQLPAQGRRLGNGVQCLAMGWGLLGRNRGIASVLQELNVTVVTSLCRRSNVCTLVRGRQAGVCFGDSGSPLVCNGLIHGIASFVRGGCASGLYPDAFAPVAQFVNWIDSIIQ

human kallikrein 8 (hK8) [20] = biological target: T6, human kallikrein 8 (hK8); experiment: cell-based or functional assay
[21] = biological target: T5, human kallikrein 14 (hK14); experiment: cell-based or functional assay
[22] = biological target: T3, prostate specific antigen (PSA, hK3); experiment: Western blot, 1 µg inhibitor with 100 ng kallikrein, 1 h at 37 C
Experimental: (§1) Analysis of the inhibitory reaction between rACTs and the human kallikreins were analysed by Western Blot (data not shown). For each variants of ACT, 1 μg of inhibitor was incubated with 100 ng of either hK2 or hK3 during 1 hour at 37° C. under physiological conditions.

human kallikrein 2 (hK2) [23] = biological target: T2, human kallikrein 2 (hK2); experiment: as above
Experimental: as §1

T4 sequence (P17538 19-263): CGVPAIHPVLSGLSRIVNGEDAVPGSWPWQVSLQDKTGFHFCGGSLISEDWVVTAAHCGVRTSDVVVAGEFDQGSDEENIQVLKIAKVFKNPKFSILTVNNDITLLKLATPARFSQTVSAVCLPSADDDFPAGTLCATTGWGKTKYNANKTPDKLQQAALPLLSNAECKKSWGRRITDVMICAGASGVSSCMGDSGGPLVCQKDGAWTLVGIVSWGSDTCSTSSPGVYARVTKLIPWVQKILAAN
T1 sequence (P03952 20-638 limits assumed): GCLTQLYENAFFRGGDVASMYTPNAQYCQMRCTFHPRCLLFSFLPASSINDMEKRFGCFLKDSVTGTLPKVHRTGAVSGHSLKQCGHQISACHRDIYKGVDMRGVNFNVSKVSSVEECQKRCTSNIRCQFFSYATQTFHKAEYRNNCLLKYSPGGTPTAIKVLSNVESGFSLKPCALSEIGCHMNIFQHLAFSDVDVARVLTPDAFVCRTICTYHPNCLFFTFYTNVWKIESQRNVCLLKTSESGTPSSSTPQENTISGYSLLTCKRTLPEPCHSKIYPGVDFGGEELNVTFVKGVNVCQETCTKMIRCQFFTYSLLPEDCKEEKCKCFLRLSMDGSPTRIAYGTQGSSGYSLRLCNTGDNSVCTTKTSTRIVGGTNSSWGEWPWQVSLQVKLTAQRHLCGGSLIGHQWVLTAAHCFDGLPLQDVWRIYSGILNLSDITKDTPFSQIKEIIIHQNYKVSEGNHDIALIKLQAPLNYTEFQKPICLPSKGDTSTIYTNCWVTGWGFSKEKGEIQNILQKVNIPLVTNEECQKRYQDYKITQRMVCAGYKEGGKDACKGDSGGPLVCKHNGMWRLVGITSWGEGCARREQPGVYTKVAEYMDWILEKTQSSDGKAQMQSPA

- kon [1]: 201 M⁻¹ s⁻¹
- kon (human kallikrein 2 (hK2) [2]): 8990 M⁻¹ s⁻¹
- INHIBITION % [3]: 0%
- INHIBITION % [4]: 0%
- INHIBITION % [5]: 36%
- INHIBITION % (human kallikrein hK1): 0%
- INHIBITION % (human kallikrein 2 (hK2) [6]): 100%
- SI (stoichiometry of inhibition) [7]: 277
- SI (stoichiometry of inhibition) (human kallikrein 2 (hK2) [8]): 9
- fold lower ka than with hK2 [9]: 45 fold
B1: rACT6.7 (other)
chain: MRGSHHHHHHSRHPNSPLDEENLTQENQDRGTHVDLGLASANVDFAFSLYKQLVLKAPDKNVIFSPLSISTALAFLSLGAHNTTLTEILKGLKFNLTETSEAEIHQSFQHLLRTLNQSSDELQLSMGNAMFVKEQLSLLDRFTEDAKRLYGSEAFATDFQDSAAAKKLINDYVKNGTRGKITDLIKDLDSQTMMVLVNYIFFKAKWEMPFDPQDTHQSRFYLSKKKWVMVPMMSLHHLTIPYFRDEELSCTVVELKYTGNASALFILPDQDKMEEVEAMLLPETLKRWRDSLEFREIGELYLPKFSISRDYNLNDILLQLGIEEAFTSKADLSGITGARNLAVSQVVHKAVLDVFEEGTEASAATAVKIKLRTTLVETRTIVRFNRPFLMIIVPTDTQNIFFMSKVTNPKQA
notes: recombinant ACT variant, RSL substrate peptide KLRTT; N-terminal His tag, E. coli TG1; also called MD67; MD 67

- kon [10]: 86200 M⁻¹ s⁻¹
- kon [11]: 25900 M⁻¹ s⁻¹
- kon [12]: 287000 M⁻¹ s⁻¹
- SI (stoichiometry of inhibition) [13]: 1
- SI (stoichiometry of inhibition) [14]: 4.6
- SI (stoichiometry of inhibition) (human kallikrein 8 (hK8) [15]): ~180
- SI (stoichiometry of inhibition) [16]: 3.2
- INHIBITION % (thrombin): 0%
- INHIBITION % [17]: 98%
- INHIBITION % [18]: 100%
- INHIBITION % [19]: 0%
- INHIBITION % (human kallikrein 8 (hK8) [20]): ~25%
- INHIBITION % [21]: 100%
- binding result [22]: binds
- binding result (human kallikrein 2 (hK2) [23]): binds
B2: rACTPCI (other)
chain: B1 chain with K370T, L371F, T373S, T374A
notes: E. coli TG1, Ni-NTA purified; also called MDCI; MD CI
